Test results taken from publication PMC4775219 (eLife, 2016).

Target: T1, Full-length H-Ras (SNAPtag-(GAGS)2x-MBP-H-Ras-DoubleHisTag) (human, UniProt P01112 1-189, SNAP-Cell 430 dye on the SNAP-tag)
T1 construct: H-Ras GTPase, human, full length; loaded with GDP or GTP as the experiment says; Held on Ni beads by the C-terminal double His tag; The nucleotide state (GDP or GTP) is a condition of the assay; also called wild-type Ras; WT Ras; source: E. coli BL21(T1R), purified (Ni-NTA, amylose, gel filtration Superdex S200); not shown: SNAP-tag, N-terminal, kept; DoubleHisTag (10xHis-(GAGS)3x-6xHis), …
Assay: recruitment of fluorescent effector to Ras-loaded beads, spinning disk confocal microscopy; two competing effectors, each with its own fluorophore, in equivalent amounts on the same Ras-loaded beads; 2 uM RasGRF GEF step input, 5 mM GTP; GAP-free or with NF1-GAP
Details: both partners purified

B1: RBD from the A-Raf kinase (SNAPtag-(GAGS)2x-MBP-ARafRBD-StrepII) (domain or fragment, UniProt P10398 19-91, looked up)
chain: GTVKVYLPNKQRTVVTVRDGMSVYDSLDKALKVRGLNQDCCVVYRLIKGRKTVTAWDTAIAPLDGEELIVEVL
modifications: SNAP-Surface 488 or SNAP-Surface 549 dye on the SNAP-tag
notes: source: E. coli BL21(T1R), purified (Streptactin, amylose, gel filtration Superdex S75); not shown: SNAP-tag, N-terminal, kept
**Q.** B1 was tested. Which “output amplitude, fold lower than C-Raf RBD (GAP-free two-effector network)” value did it give?
**A.** 20 times lower
